“And” between values parts separate entries of the source, which are not always exact repeats. Identical values can stand only once.

Test [1] addresses PKM2 (mouse (endogenous in ImKCs)) (UniProt P52480). Briefly: native gel or EMSA; ImKCs treated with vehicle or DPI (50 and 500 nM) for 1 h (also 6 and 12 h); proteins extracted in Native PAGE sample buffer with 1% digitonin, run on native PAGE, anti-PKM2 Western blotting. On the technique in general: In EMSA bound probe runs differently from free probe, usually more slowly.
Test [2] has the same target. Briefly: cross-linking; DSS crosslinking followed by Western blotting, after DPI treatment; also with the ERK1/2 inhibitor SCH772984. (In western blotting, separated proteins are transferred to a membrane and probed.)

Sequence of PKM2, P52480-1 1-531 (enzyme; other documents disagree on this pair) (P52480 whole entry): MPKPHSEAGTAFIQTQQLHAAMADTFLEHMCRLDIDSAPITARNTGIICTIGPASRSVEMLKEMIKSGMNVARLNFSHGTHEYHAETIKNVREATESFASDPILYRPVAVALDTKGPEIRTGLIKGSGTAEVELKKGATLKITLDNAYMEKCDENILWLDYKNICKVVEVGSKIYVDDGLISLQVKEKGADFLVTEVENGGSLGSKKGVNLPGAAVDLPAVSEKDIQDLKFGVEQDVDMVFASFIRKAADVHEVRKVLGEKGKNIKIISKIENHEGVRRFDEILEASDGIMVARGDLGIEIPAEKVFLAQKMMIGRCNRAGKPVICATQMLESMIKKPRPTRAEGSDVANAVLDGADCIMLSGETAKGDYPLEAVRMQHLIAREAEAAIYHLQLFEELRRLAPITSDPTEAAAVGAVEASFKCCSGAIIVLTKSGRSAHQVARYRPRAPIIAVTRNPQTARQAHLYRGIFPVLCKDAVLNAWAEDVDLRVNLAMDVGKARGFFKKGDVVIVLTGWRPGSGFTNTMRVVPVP

For orientation: stoichiometry N means a count of units in the complex or per binding partner. In the case of “PKM2, P52480-1 1-531 (enzyme; other documents disagree on this pair)”, the stoichiometry N in test [1] is 2 and 4; in test [2], 2.

The record behind these values is paper PMC10821868.
